This is an account of results in patent publication US20220275333A1 (FATE THERAPEUTICS, published 2022).

In this assay the target is T1, human MICA (on target cells: MICA over-expressing P815, MICA+ Nalm6, endogenous on A2058, K562, CaSki) (human, UniProt Q29983 24-383).
T1 sequence (looked up): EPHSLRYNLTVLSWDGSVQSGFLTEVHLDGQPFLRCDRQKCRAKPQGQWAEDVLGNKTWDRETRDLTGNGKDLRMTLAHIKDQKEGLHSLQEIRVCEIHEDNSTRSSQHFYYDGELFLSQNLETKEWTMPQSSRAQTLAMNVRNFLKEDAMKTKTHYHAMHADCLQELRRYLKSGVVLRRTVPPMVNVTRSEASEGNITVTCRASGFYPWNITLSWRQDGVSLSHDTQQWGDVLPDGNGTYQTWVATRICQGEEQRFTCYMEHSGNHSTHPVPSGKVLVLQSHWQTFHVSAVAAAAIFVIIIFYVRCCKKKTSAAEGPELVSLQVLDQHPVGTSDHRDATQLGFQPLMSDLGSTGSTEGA
The experiment in a line: cell-based or functional assay.

B1: MICA/B CAR (anti-MICA/B chimeric antigen receptor; version not stated for the experiment) (other)
VH: QIQLVQSGPELKKPGETVKVSCKASGYMFTNYAMNWVKQAPEKGLKWMGWINTHTGDPTYADDFKGRIAFSLETSASTAYLQINNLKNEDTATYFCVRTYGNYAMDYWGQGTSVTVSS
VL: DIQMTQTTSSLSASLGDRVTISCSASQDISNYLNWYQQKPDGTVKLLIYDTSILHLGVPSRFSGSGSGTDYSLTISNLEPEDIATYYCQQYSKFPRTFGGGTTLEIK
As to B1, the “EC50 of cytotoxicity (% Caspase 3/7+ target cells) of MICA/B CAR+ T cells on MICA+ Nalm6 cells over E:T ratios, 4 hours” value is ~1.9 E:T ratio and the “EC50 of cytotoxicity (% Caspase 3/7+ target cells) of MICA/B CAR+ iNK cells on P815 MICA+ cells over E:T ratios, 4 hours” value is ~5.2 E:T ratio.
